Earlier results, collected in US20240409647A1, “BISPECIFIC BINDING PROTEINS AGAINST ALARMINS AND USES THEREOF” (SINOMAB BIOSCIENCE LIMITED, priority 2022, published 2024).

Conditions: patients who discontinued ICS and LABA, 12 weeks; placebo 41%

B1: itepekimab: anti-IL-33 antibody (antibody, chains of the INN, looked up, V domains shown)
VH: EVQLVESGGNLEQPGGSLRLSCTASGFTFSRSAMNWVRRAPGKGLEWVSGISGSGGRTYYADSVKGRFTISRDNSKNTLYLQMNSLSAEDTAAYYCAKDSYTTSWYGGMDVWGHGTTVTVSS
VL: DIQMTQSPSSVSASVGDRVTITCRASQGIFSWLAWYQQKPGKAPKLLIYAASSLQSGVPSRFSGSGSGTDFTLTISSLQPEDFAIYYCQQANSVPITFGQGTRLEIK
rate of loss of asthma control: 22%
